Assay results as given in paper PMC9019556, “Molecular interactions of STAC proteins with skeletal muscle dihydropyridine receptor and excitation‐contraction coupling” (Protein Science : A Publication of the Protein Society, 2022).

Target: T1, full-length II–III loop of the skeletal muscle dihydropyridine receptor α1S subunit (UniProt P07293 665-785)
T1 construct: cytosolic II–III loop of the DHPR α1S subunit (skeletal muscle voltage-dependent L-type calcium channel), 115 amino acids; The methods' sentence 'genes for human STAC2SH3s and the DHPR II–III loop' leaves open whether the loop is human; Used unlabelled (SPR, immobilised) and 15N-labelled (NMR); also called DHPR II–III loop; full II–III loop
T1 sequence (looked up): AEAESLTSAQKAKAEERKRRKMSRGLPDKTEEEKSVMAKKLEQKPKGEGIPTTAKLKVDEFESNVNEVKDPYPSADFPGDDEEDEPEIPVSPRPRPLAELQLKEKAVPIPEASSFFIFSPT
Experiment: SPR; full DHPR II–III loop immobilised on a CM5 chip by amine coupling; STAC proteins flowed over at 30 μL/min for 120 s; Biacore 8K, 20°C; 10 mM HEPES-HCl pH 7.4, 150 mM NaCl, 0.05% Tween-20, 3 mM EDTA; affinity curve
Conditions: both partners purified

B1: tandem SH3 domains of STAC3 (SH3 and cysteine-rich domain-containing protein 3) (domain or fragment, human)
chain: GFQQSHYFVALYRFKALEKDDLDFPPGEKITVIDDSNEEWWRGKIGEKVGFFPPNFIIRVRAGERVHRVTRSFVGNREIGQITLKKDQIVVQKGDEAGGYVKVYTGRKVGLFPTDFLEEI
notes: human STAC3, tandem SH3 domains (SH3_1 and SH3_2) at the C-terminal end; Used unlabelled (SPR, titrant in NMR) and 15N-labelled (NMR titration with the C3 peptide); also called STAC3SH3s
B1 gave a Kd of 21 µM.

B2: tandem SH3 domains of STAC2 (domain or fragment, human)
chain: SYVALYKFLPQENNDLALQPGDRIMLVDDSNEDWWKGKIGDRVGFFPANFVQRVRPGENVWRCCQPFSGNKEQGYMSLKENQICVGVGRSKDADGFIRVSSGKKRGLVPVDALTEI
notes: human STAC2, tandem SH3 domains (SH3_1 and SH3_2) at the C-terminal end; Used unlabelled (SPR) and 15N-labelled (NMR); also called STAC2SH3s
With B2 the Kd was 22.6 µM.
